Measured values: publication PMC10984559

Biological target: T1, Mtr4 ΔSLYL (Saccharomyces cerevisiae, UniProt P47047 1-1069, del1070-1073)
T1 sequence: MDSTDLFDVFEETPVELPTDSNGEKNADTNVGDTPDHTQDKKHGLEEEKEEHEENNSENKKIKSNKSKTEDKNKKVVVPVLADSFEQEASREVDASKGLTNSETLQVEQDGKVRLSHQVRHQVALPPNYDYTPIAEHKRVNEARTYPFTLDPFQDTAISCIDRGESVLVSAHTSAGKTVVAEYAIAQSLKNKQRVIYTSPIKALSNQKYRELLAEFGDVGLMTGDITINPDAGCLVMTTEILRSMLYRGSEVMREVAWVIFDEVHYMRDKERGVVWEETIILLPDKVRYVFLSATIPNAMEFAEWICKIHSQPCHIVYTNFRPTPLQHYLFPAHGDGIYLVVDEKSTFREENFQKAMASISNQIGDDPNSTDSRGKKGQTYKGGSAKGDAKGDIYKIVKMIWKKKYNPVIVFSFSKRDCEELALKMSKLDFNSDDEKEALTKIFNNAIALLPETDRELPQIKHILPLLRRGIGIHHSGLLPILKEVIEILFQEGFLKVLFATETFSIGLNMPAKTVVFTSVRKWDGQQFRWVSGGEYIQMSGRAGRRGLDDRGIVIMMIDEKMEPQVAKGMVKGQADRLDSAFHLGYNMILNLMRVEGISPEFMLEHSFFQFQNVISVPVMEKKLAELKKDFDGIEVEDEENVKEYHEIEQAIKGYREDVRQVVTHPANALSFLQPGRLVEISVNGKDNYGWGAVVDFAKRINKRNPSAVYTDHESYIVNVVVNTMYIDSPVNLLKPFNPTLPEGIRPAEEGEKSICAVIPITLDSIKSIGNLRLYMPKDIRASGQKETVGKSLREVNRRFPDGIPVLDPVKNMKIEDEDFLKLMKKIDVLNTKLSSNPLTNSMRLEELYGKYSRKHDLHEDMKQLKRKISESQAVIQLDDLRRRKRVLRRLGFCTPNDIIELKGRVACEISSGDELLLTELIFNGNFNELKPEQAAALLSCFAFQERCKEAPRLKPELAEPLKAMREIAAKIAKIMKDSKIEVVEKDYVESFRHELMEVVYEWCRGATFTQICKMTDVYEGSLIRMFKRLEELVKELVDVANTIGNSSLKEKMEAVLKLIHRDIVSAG
Assay: EMSA

B1: ds16UA5 (R16/R22A) (dsRNA)
RNA 1: AGCACCGUAAAGACGC
RNA 2: GCGUCUUUACGGUGCUUAAAAA
binding signal: > 5 fold Kd vs WT
